Results from paper PMC11162469, “Discovery of RXFP2 genetic association in resistant hypertensive men and RXFP2 antagonists for the treatment of resistant hypertension” (Scientific Reports, 2024).
Bridge positions count the residues as written; N and C are the ends. Ends that are not written are not given here. I, II: the chains in the order shown.

Legend:
[1] = biological target: rat relaxin family peptide receptor 2 (RXFP2) (rat) (UniProt Q5ECL0)
[2] = biological target: human relaxin family peptide receptor 2 (RXFP2) (human) (UniProt Q8WXD0)
[3] = biological target: rat relaxin family peptide receptor 2 (RXFP2) (rat) (UniProt Q5ECL0); remark: listed apart in the source
[4] = biological target: rat relaxin family peptide receptor 2 (RXFP2) (rat) (UniProt Q5ECL0); remark: listed apart in the source
[5] = biological target: rat relaxin family peptide receptor 2 (RXFP2) (rat) (UniProt Q5ECL0); remark: listed apart in the source

Chain of rat relaxin family peptide receptor 2 (RXFP2) (rat) (Q5ECL0 entry or part of it): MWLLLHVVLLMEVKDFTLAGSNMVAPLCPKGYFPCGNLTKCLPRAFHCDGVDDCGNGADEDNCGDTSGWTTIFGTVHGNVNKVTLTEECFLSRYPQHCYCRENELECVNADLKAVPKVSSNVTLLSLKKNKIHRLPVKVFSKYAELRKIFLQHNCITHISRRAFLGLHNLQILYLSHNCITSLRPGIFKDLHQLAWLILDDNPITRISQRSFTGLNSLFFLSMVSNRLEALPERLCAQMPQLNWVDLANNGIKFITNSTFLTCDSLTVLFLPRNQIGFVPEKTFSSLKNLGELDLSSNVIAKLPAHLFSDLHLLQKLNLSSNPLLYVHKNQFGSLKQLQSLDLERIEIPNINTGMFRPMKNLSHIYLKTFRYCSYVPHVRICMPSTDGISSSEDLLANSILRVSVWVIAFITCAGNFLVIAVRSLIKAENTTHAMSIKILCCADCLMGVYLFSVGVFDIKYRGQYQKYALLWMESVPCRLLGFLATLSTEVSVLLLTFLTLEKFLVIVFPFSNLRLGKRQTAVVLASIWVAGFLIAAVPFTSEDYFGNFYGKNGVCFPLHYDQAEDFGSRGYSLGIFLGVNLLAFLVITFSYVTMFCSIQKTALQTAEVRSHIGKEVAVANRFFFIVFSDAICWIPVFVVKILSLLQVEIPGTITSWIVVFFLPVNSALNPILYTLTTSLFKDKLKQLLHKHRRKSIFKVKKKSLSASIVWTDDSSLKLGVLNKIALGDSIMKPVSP
Chain of human relaxin family peptide receptor 2 (RXFP2) (human) (Q8WXD0 whole entry): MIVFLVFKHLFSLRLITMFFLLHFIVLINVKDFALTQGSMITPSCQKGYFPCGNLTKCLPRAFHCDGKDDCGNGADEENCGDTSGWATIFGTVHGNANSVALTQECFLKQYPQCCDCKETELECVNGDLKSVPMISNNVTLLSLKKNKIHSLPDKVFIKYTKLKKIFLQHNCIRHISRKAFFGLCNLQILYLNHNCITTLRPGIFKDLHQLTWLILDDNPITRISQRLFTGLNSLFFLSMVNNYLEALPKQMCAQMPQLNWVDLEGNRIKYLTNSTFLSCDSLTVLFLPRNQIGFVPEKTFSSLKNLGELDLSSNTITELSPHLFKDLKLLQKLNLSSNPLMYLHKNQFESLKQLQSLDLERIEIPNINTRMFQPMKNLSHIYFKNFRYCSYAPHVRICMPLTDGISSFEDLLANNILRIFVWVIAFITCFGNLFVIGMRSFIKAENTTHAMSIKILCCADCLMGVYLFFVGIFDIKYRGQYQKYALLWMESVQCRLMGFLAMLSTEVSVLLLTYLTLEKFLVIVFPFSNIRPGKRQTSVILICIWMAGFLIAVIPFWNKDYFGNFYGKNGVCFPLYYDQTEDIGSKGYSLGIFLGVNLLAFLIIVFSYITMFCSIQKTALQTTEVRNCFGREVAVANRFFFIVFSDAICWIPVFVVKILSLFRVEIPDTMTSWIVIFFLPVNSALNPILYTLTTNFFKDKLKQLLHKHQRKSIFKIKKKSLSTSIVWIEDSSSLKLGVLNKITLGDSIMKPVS

Row | % Max Response, INSL3 (EC80)-stimulated cAMP in HEK293 stably expressing rat RXFP2 [1] | IC50, INSL3 (EC80)-stimulated cAMP in HEK293 stably expressing rat RXFP2 [1] | IC50, INSL3-stimulated CYP11B1 mRNA in H295R stably expressing rat RXFP2 [1] | IC50, INSL3-stimulated CYP11B2 mRNA in H295R stably expressing rat RXFP2 [1] | % Max Response, INSL3 (EC80)-stimulated cAMP in HEK293 stably expressing human RXFP2 [2] | IC50, INSL3 (EC80)-stimulated cAMP in HEK293 stably expressing human RXFP2 [2] | IC50, INSL3-induced cortisol release (ELISA) from H295R stably expressing rat RXFP2 [3] | IC50, INSL3-induced aldosterone release (ELISA) from H295R stably expressing rat RXFP2 [3] | EC50, aldosterone secretion (ELISA) from H295R cells stably expressing rat RXFP2 [4] | EC50, cortisol secretion (ELISA) from H295R cells stably expressing rat RXFP2 [5] | Binder
1 | 91% | 23.2 nM | 2.85 nM | 0.31 nM | – | – | – | – | – | – | RXFP2 mAb 4A5 (antibody, V domains shown) VH: DVQLVESGGGLVQPGGSRKLSCAASGFTFSTFGMHWVRQAPEKGLEWVAYISSGSSTIYYADTVKGRFTISRDNPKNTLFLQMTSLRSDDTAMYYCSRSYYGSAHYFDYWGQGTTLTVSS VL: DIQMTQSPASLSVSVGETVTITCRASENIYSNLAWYQQKQGKSPQLLVYVATNLADGVPSRFSGSGSGTQYSLRINNLQSEDFGNYYCQHFWGTPPTFGGGTKLEIK
2 | 80.4% | 48.5 nM | – | – | 82.7% | 354 nM | – | – | – | – | RXFP2 mAb 4F6 (antibody, V domains shown) VH: EVQLQQSGPELVKPGASVKMSCKASGYTFTNYVLHWVKQKPGQGLEWIGYINPYNDGSKYNEKFKGRATLTSDKSSSTAYMELSSLTSEDSAVYYCARGGWLLDYFDYWGQGTTLTVSS VL: DVLMTQSPLSLPVSLGEQASISCRSSQSIVHSDGDTYLEWYLQKPGQSPNLLIYKVSNRFSGVPDRFSGSGSGTDFTLKISRVEAEDLGVYYCFQGSHVPPTFGGGTKLEIK
3 | 76.1% | 19.1 nM | 0.32 nM | 0.1 nM | – | 405 nM | 0.21 nM | – | – | – | RXFP2 mAb 1F2 (antibody, V domains shown) VH: QVQLKQSGPGLVQPSQSLSITCTVSGFSLTAYGVNWVRQSPGKGLEWLGVIWSGGNTDYNAPFISRLSITKDNSKSQVFFKMNSLEADDTAIYYCARAKGYYAMDYWGQGTSVTVSS VL: DIQMTQSPASLSVSVGESVTITCRATENIYSNLVWYQQKQGQSPQLLVYAVTSLADGVPSRFSGSGSGTQYSLKINSLQSEDFGTYYCQHFWGTPYTFGGGTKLEIK
4 | 83.3% | 16.1 nM | 0.33 nM | 0.2 nM | – | – | – | – | – | – | RXFP2 mAb 3G4 (antibody, V domains shown) VH: QVQLKESGPGLVAPSQSLSITCTVSGFSLTSYGVSWVRQPPGKGLEWLGVIWGDGSTNYHSALISRLSISKDNSKSQVFLKLNSLQTDDTATYYCAKSLGYYAMDYWGQGTSVTVSS VL: DIQMTQSPASLSVSVGETVTITCRASENIYSNLVWYQQKQGKSPQLLVYAATNLAEGVPSRFSGSGSGTQYSLKINSLQSEDFGSYYCQHFWGPPWTFGGGTKLEIK
5 | 86.8% | 21 nM | 0.14 nM | 0.11 nM | – | > 1000 nM | 0.17 nM | 0.05 nM | – | – | RXFP2 mAb 2D4 (antibody, V domains shown) VH: QVQLKESGPGLVAPSQSLSITCTVSGFSLTTYGISWVRQPPGKGLEWLGVIWTGGGTNYNSALKSRLSISKDNSKSQVFLKMNSLQTDDTARYYCARTEGYYVMDYWGQGTSVTVSS VL: DIQMTQSPASLSVSVGETVTITCRASENIYSNLVWYQQKQGKSPQLLVYAATNLADGVPSRFSGSGSGTQYSLKINNLQSEDFGTYYCQHFWGPPWTFGGGTKLEIK
6 | 85.7% | 18.9 nM | 0.26 nM | 0.13 nM | – | – | – | – | – | – | RXFP2 mAb 4H2 (antibody, V domains shown) VH: QVQLRQSGPSLVQPSQSLSITCTVSGFSLTNYGVHWVRQSPGKGLEWLGVIWRGGNTDHNAAFMSRLSITKDNSESQVFFKMNSLQVDDTAIYYCAKAEGYYALDYWGQGTSVTVYS VL: DIQMTQSPASLSVSVGETVTITCRASENIYSNLAWYQQKQGKSPQLLVYAVTNLADGVPSRFSGSGSGTQYSLKINSLQSEDFGSYYCQHFWGTPWTFGGGTKLEIK
7 | 69.7% | 19.9 nM | 0.27 nM | 0.23 nM | – | 589 nM | – | – | – | – | RXFP2 mAb 3F1 (antibody, V domains shown) VH: QVQLKESGPGLVAPSQSLSITCTVSGFSLTDYGVSWIRQPPGKGLEWLGVIWGGGSTDYNPALKSRLSISKDNSKSQVFLKMNSLQADDTAMYYCVKHEGYYAMDYWGQGTSVTVSS VL: DIQMTQSPASLSVSVGETVTITCRASENIYSNLAWYQQKQGKSPHLLVYAVTNLADGVPSRFSGSGSGTQYSLKINSLQSEDFGSYYCQHFWGTPYTFGGGTKLEIK
8 | 71.6% | 15.8 nM | 0.33 nM | 0.16 nM | – | – | – | – | – | – | RXFP2 mAb 3H1 (antibody, V domains shown) VH: QVQLKETGPGLVAPSQSLSITCTVSGFSLTNYGVNWVRQPPGKGLEWLVVIWSDGSTNYNSALKSRLSISKDNSKSQVFLKMNSLQTDDTAMYYCARQQGYYAMDYWGQGTSVIVSS VL: DIQMTQSPASLSVSVGETVTITCRASENIYSNLAWYQQKQGKSPQLLVYAVTNLADGVPSRFSGSGSGTQYSLKINSLQSEDFGSYYCQHFWGPPYTFGGGTKLEIK
9 | 86.6% | 21.4 nM | 0.23 nM | 0.17 nM | – | 116 nM | – | – | – | – | RXFP2 mAb 4B8 (antibody, V domains shown) VH: QVQLKQSGPGLVQPSQSLSITCTVSGFSLSRYGVHWVRQSPGKGLEWLGVIWSGGSTEYNAVFKSRLSISKDNSKSQVFFKMNSLQANDTAIYYCVRADGYYAMEYWGQGTSVTVSS VL: DIQMTQSPASLSVSVGETVTITCRASENIYSNLAWYQQKQGKSPQLLVYAVTNLADGVPSRFSGSGSGTQYSLKINSLQSEDFGNYYCQHFWGTPYTFGGGTKLEIK
10 | 89.2% | 14.2 nM | 0.21 nM | 0.15 nM | – | – | – | – | – | – | RXFP2 mAb 4H5 (antibody, V domains shown) VH: QVQLKQSGPGLVQPSQSLSITCTVSGFSLTNYGVHWVRQSPGKGLEWLGVIWRDGNTDYNAAFMSRLSITKDNSKSQVFFEMNSLQVDDTAIYYCCRGDGYYAMGYWGQGTSVTVSS VL: DIQMTQSPASLSVSVGETVTITCRASENIYSNLAWYQQRQGRSPQLLVYAATNLADGVPSRFSGSGSGTQYSLKINSLQSEDFGNYYCQHFWGSPRTFGGGTKLEIK
11 | 69.7% | 150 nM | – | – | – | 218 nM | – | – | – | – | RXFP2 mAb 4H1 (antibody, V domains shown) VH: QIQLVQSGPELKKPGETVKISCKTSGYTFTKYPMHWVKQAPGEGLKWMGWINTYSGLPTFADDFKGRFAFSLETSANTADLQINNLKNEDMATYFCAREGKKLSGYFDYWGQGTTLTVSS VL: DIKMTQSPSSMYASLGERVTITCKASQDINSYLTWFQQKPGQSPKTLIYRANRFVDGVPSRFSGSGSGQDYSLTITSLEYEDMGIYYCLQYDEFPYTFGGGTQLEIK
12 | – | – | – | – | – | – | – | – | 2.2 nM | 0.16 nM | Rat INSL3 (ligand, disulfide I:10-I:15, I:11-II:14, I:24-II:26) chain 1: SVATNAVHRCCLTGCTQQDLLGLCPH chain 2: LRSPQPPEARAKLCGHHLVRALVRVCGGPRWSPEA
13 | 78.5% | 37 nM | 3.85 nM | 0.51 nM | – | – | – | – | – | – | RXFP2 mAb 3F3 (antibody, V domains shown) VH: QVQLQQPGSVLVRPGASVKLSCKASGYIFTSYWMHWVKQRPGQGLEWIGEIYPNSGRTSYNEKFKGKATVTVDTSSSTAYVDLSSLTSEDSAVYYCASGGHWFAYWGQGTLVTVSA VL: DIQMTQSSSSFSVSLGDRVTITCKASEDIYNRLAWYQQKPGNAPRLLISGATSLEAGVPSRFSGSGSGKDYTLSITSLQTEDVSTYYCQQYWITPYTFGGGTKLEIK
14 | 87.2% | 28 nM | 0.27 nM | 0.17 nM | – | – | – | – | – | – | RXFP2 mAb 1G1 (antibody, V domains shown) VH: EVQLQQSGPELVKPGASVKMSCKASGYTFTDYNMHWVKQKPGQGLEWIGYINPYNDGTEYNEKFKGKATLTSDKSSSTAYMDLSSLTSEDSAVYYCARGLWFAMNYWGQGTSVTVSS VL: DIQMTQSSSSFSVSLGDRVTITCKASEDIYNRLAWYQQKPGNTPRLLISGATILETGVPSRFSGSGSGKDYTLSIISLQTEDVATYYCQQYWIIPPTFGGGTKLEIK
15 | 82.5% | 14.1 nM | 0.33 nM | 0.1 nM | 84.5% | 15.6 nM | 0.26 nM | – | – | – | RXFP2 mAb 4G6 (antibody, V domains shown) VH: EVQLQQSGPELVKPGASVKLSCKASGYTFTSYVMHWVKQKPEQGLEWIGYKNPSNDGIKYNEKFKGKATLTSDKSSNIAYMELFSLTSEDSAVYYCARSDFGSVWAMDYWGQGTSVTVSS VL: SIVMTQTPKFLLVSAGDRVTITCKASQSVNDDIVWYQQKPGQSPKLLIYYASNRYTGVPDRFTGSGYGTDFTFTISTVQAGDLAVYFCQQDYSSPFTFGSGTKLEIK
